The test addresses T1, RsmA (E. coli, UniProt P06992 1-273).
T1 sequence (looked up): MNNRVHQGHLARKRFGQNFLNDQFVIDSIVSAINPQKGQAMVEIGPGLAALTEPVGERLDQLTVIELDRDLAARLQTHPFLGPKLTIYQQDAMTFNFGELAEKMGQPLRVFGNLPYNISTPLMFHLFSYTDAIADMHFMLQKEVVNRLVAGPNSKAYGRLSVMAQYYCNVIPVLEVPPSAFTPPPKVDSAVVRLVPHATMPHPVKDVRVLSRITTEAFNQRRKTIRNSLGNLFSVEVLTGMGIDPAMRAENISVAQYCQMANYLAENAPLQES
In words: NMR titration.

Here are results for one molecule from article PMC8177701 (Science Advances, 2021).

Where only a bound is given, the exact number is not on record here.

B1: RimP (natural protein)
chain: not shown
B1 yielded a Ka of less than 10000 M⁻¹.
